In article PMC9122904, “Insights into the client protein release mechanism of the ATP-independent chaperone Spy” (Nature Communications, 2022):
Numbering of substitutions follows the chain as printed. In names and notes the source's numbering stands.

What was measured:
Experiment in all cases: BLI; Octet RED96; client biotinylated and loaded on streptavidin sensors; Spy or Spy variant in solution at 0.25, 0.5, 1, 1.5 and 2 μM; 40 mM HEPES, 150 mM NaCl, pH 7.5; Kd calculated as koff/kon
Details in all cases: both partners purified
Spy_(29-124) R43D = molecular target: T1, Spy_(29-124) R43D (UniProt P77754 52-147, R43D)
T1 construct: source: E. coli BL21 (DE3), purified (Ni-NTA, cation exchange, SEC); not shown: His6, N-terminal, cleaved; SUMO, N-terminal, cleaved
T1 sequence (looked up): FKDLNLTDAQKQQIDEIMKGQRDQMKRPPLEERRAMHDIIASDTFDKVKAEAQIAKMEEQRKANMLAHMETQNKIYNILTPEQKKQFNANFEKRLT

Spy_(29-124) H96D = molecular target: T2, Spy_(29-124) H96D (UniProt P77754 52-147, H96D)
T2 construct: source: E. coli BL21 (DE3), purified (Ni-NTA, cation exchange, SEC); not shown: His6, N-terminal, cleaved; SUMO, N-terminal, cleaved
T2 sequence (looked up): T1 sequence (looked up) with D15R, H68D

Spy_(29-124) R50D = molecular target: T3, Spy_(29-124) R50D (UniProt P77754 52-147, R50D)
T3 construct: source: E. coli BL21 (DE3), purified (Ni-NTA, cation exchange, SEC); not shown: His6, N-terminal, cleaved; SUMO, N-terminal, cleaved
T3 sequence (looked up): T1 sequence (looked up) with D15R, R22D

Spy_(29-124) K75D [1] = molecular target: T4, Spy_(29-124) K75D (UniProt P77754 52-147, K75D)
T4 construct: source: E. coli BL21 (DE3), purified (Ni-NTA, cation exchange, SEC); not shown: His6, N-terminal, cleaved; SUMO, N-terminal, cleaved
T4 sequence (looked up): T1 sequence (looked up) with D15R, K47D

Spy_(29-124) R61D R62D = molecular target: T5, Spy_(29-124) R61D R62D (UniProt P77754 52-147, R61D | R62D)
T5 construct: source: E. coli BL21 (DE3), purified (Ni-NTA, cation exchange, SEC); not shown: His6, N-terminal, cleaved; SUMO, N-terminal, cleaved
T5 sequence (looked up): T1 sequence (looked up) with D15R, R33D, R34D

Spy_(29-124) K54D R55D = molecular target: T6, Spy_(29-124) K54D R55D (UniProt P77754 52-147, K54D | R55D)
T6 construct: source: E. coli BL21 (DE3), purified (Ni-NTA, cation exchange, SEC); not shown: His6, N-terminal, cleaved; SUMO, N-terminal, cleaved
T6 sequence (looked up): T1 sequence (looked up) with D15R, K26D, R27D

Spy_(29-124) K121D R122D = molecular target: T7, Spy_(29-124) K121D R122D (UniProt P77754 52-147, K121D | R122D)
T7 construct: source: E. coli BL21 (DE3), purified (Ni-NTA, cation exchange, SEC); not shown: His6, N-terminal, cleaved; SUMO, N-terminal, cleaved
T7 sequence (looked up): T1 sequence (looked up) with D15R, K93D, R94D

Spy_(29-124) R89D = molecular target: T8, Spy_(29-124) R89D (UniProt P77754 52-147, R89D)
T8 construct: source: E. coli BL21 (DE3), purified (Ni-NTA, cation exchange, SEC); not shown: His6, N-terminal, cleaved; SUMO, N-terminal, cleaved
T8 sequence (looked up): T1 sequence (looked up) with D15R, R61D

Spy_(29-138) = molecular target: T9, Spy_(29-138) (UniProt P77754 52-161)
T9 construct: source: E. coli BL21 (DE3), purified (Ni-NTA, cation exchange, SEC); not shown: His6, N-terminal, cleaved; SUMO, N-terminal, cleaved
T9 sequence (looked up): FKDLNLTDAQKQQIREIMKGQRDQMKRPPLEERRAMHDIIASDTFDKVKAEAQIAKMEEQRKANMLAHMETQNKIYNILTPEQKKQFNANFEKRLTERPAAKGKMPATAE
Method in brief: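 Biolayer interferometry used an Octet RED96: client proteins biotinylated with EZ-link NHS-biotin (1:1 molar ratio) were loaded on streptavidin sensors, dipped into 40 mM HEPES, 150 mM NaCl, pH 7.5 containing Spy protein at 0.25, 0.5, 1, 1.5 and 2 μM, then moved to Spy-free buffer. Wavelength-shift association and dissociation curves were fitted in SigmaPlot 12.0, giving observed association rate and koff. kon came from observed rate versus Spy concentration; Kd was koff/kon.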

Spy_(29-124) K75D [2] = molecular target: T4, Spy_(29-124) K75D; remark: listed apart in the source

koff (Spy_(29-124) R43D): 0.601 s⁻¹
koff (Spy_(29-124) H96D): 0.234 s⁻¹
koff (Spy_(29-124) R50D): 0.477 s⁻¹
koff (Spy_(29-124) K75D [1]): 0.0712 s⁻¹
koff (Spy_(29-124) R61D R62D): 0.262 s⁻¹
koff (Spy_(29-124) K54D R55D): 0.239 s⁻¹
koff (Spy_(29-124) K121D R122D): 0.349 s⁻¹
koff (Spy_(29-124) R89D): 0.125 s⁻¹
koff (Spy_(29-138)): 0.0893 s⁻¹
kon (Spy_(29-124) K75D [2]): 156000 M⁻¹ s⁻¹
B1: Im7 H40W L53A I54A (natural protein)
chain: MELKNSISDYTEAEFVQLLKEIEKENVAATDDVLDVLLEWFVKITEHPDGTDAAYYPSDNRDDSPEGIVKEIKEWRAANGKPGFKQG
modifications: biotin (EZ-link NHS-biotin, 1:1 molar ratio of biotin to protein)
notes: Im7 (colicin E7 immunity protein) with H40W L53A I54A; Spy was made with an N-terminal His6-SUMO tag that was cleaved; also called Im7AAW; partially folded client; source: purified by a similar procedure to Spy
